Test results taken from patent US20260166131.

Target: custom-expressed human TDP-43 (Nanjing GenScript Biotechnology Co., Ltd., C134WHE160-2/P5HF001), Q13148
Sequence (Q13148 whole entry): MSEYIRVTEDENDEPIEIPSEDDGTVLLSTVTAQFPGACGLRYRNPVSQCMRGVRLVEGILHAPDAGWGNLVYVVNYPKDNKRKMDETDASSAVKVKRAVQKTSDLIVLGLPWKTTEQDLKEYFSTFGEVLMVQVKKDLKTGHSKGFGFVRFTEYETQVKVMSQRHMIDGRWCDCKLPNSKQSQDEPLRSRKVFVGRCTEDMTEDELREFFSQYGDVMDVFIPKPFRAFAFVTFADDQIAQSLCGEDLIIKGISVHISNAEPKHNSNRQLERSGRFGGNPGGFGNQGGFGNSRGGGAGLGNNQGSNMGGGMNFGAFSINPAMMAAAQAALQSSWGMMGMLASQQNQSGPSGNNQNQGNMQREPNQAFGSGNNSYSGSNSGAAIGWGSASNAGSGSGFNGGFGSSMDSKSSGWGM

B1: human plasminogen purified from human donor plasma (protein)
chain: KVYLSECKTGNGKNYRGTMSKTKNGITCQKWSSTSPHRPRFSPATHPSEGLEENYCRNPDNDPQGPWCYTTDPEKRYDYCDILECEEECMHCSGENYDGKISKTMSGLECQAWDSQSPHAHGYIPSKFPNKNLKKNYCRNPDRELRPWCFTTDPNKRWELCDIPRCTTPPPSSGPTYQCLKGTGENYRGNVAVTVSGHTCQHWSAQTPHTHNRTPENFPCKNLDENYCRNPDGKRAPWCHTTNSQVRWEYCKIPSCDSSPVSTEQLAPTAPPELTPVVQDCYHGDGQSYRGTSSTTTTGKKCQSWSSMTPHRHQKTPENYPNAGLTMNYCRNPDADKGPWCFTTDPSVRWEYCNLKKCSGTEASVVAPPPVVLLPDVETPSEEDCMFGNGKGYRGKRATTVTGTPCQDWAAQEPHRHSIFTPETNPRAGLEKNYCRNPDGDVGGPWCYTTNPRKLYDYCDVPQCAAPSFDCGKPQVEPKKCPGRVVGGCVAHPHSWPWQVSLRTRFGMHFCGGTLISPEWVLTAAHCLEKSPRPSSYKVILGAHQEVNLEPHVQEIEVSRLFLEPTRKDIALLKLSSPAVITDKVIPACLPSPNYVVADRTECFITGWGETQGTFGAGLLKEAQLPVIENKVCNRYEFLNGRVQSTELCAGHLAGGTDSCQGDSGGPLVCFEKDKYILQGVTSWGLGCARPNKPGVYVRVSRFVTWIEGVMRNN
- Western blot and band density of TDP-43 after 3 h at 37 C with plasminogen in normal mouse brain homogenate: the amounts of TDP-43 monomer, HMW and LMW in the plasminogen group are significantly lower than those in the vehicle control group
